“And” between values parts separate entries of the source, which are not always exact repeats. Equal values may be shown once.
Conditions: Equus caballus; pH 7; 10 °C; GdnHCl; Fluorescence; Imidazole 50 mM

Cytochrome c wild type, P00004, sequence (P00004 whole entry): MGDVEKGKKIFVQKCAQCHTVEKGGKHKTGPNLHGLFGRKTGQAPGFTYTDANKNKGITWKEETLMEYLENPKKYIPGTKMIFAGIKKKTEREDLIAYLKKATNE

**Q.** For Cytochrome c wild type, P00004, which denaturant m value is on record?
**A.** 2.7 kcal/mol/M

**Q.** What about the unfolding free energy of the same substance?
**A.** 8.1 kcal/mol and 7.8 kcal/mol
